Source: US20250313633A1 (WUXI BIOLOGICS IRELAND, published 2025)

T1: human full-length B7H3 on MCF-7 cells (human, UniProt Q5ZPR3 29-534)
T1 chain: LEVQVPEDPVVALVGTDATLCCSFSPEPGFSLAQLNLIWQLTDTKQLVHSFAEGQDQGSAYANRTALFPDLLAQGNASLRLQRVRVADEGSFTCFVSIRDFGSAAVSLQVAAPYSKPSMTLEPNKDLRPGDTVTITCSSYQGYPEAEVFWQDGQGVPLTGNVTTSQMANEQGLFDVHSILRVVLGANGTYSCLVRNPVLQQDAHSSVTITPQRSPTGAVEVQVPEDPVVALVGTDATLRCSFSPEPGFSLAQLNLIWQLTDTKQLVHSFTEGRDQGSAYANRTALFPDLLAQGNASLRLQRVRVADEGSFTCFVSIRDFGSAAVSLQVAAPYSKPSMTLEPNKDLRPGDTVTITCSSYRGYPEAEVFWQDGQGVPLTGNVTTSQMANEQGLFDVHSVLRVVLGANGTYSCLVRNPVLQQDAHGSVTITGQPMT


What was measured:
[1] = molecular target: T1, human full-length B7H3 on MCF-7 cells; assay: cell-based or functional assay
[2] = molecular target: T1, human full-length B7H3 on MCF-7 cells; assay: FACS on MCF-7 cells
[3] = molecular target: T1, human full-length B7H3 on MCF-7 cells; assay: cell-based or functional assay

Row | Binder | Internalization on MCF-7, EC50 [1] [nM] | Internalization on MCF-7, Max MFI [1] [MFI] | Max MFI [2] [MFI] | internalization, EC50 [3] [nM]
1 | Enoblituzumab (MacroGenics) (antibody, V domains shown) VH: EVQLVESGGGLVQPGGSLRLSCAASGFTFSSFGMHWVRQAPGKGLEWVAYISSDSSAIYYADTVKGRFTISRDNAKNSLYLQMNSLRDEDTAVYYCGRGRENIYYGSRLDYWGQGTTVTVSS VL: DIQLTQSPSFLSASVGDRVTITCKASQNVDTNVAWYQQKPGKAPKALIYSASYRYSGVPSRFSGSGSGTDFTLTISSLQPEDFATYYCQQYNNYPFTFGQGTKLEIKR | 1.95 | 39800 | 4640 | –
2 | W301088-1.145.16-z3-p1-uIgG1KV320 (antibody, V domains shown, human IgG1 LALA, kappa; also called the final lead antibody; final lead) VH: QVQLQESGPGLVKPSQTLSLTCTVTDYSITGDYAWNWIRQHPGKGLEWIGYISYSGSTSYNPSLQSRVTISRDTSKNQFSLKLSSVTAADTAVYFCARSLGRRWYFVVWGQGTTVTVSS VL: not shown | 0.44 | 52300 | 19900 | 0.51
3 | W301088-1.145.16-xIgG1KV320 (antibody, V domains shown, also called the chimeric antibody; chimeric antibody) VH: DVQLQESGPGLVKPSQSLSLTCTVTDYSITGDYAWNWIRQFPGNKLEWMGYISYSGSTSYNPSLQSRISITRDTSKNQFFLQLNSVTSEDTATYFCARSLGRRWYFVVWGAGTTVTVSA VL: not shown | 0.51 | 57200 | 19800 | –
